Measurements published in paper PMC4017629 (Journal of molecular biology, 2014).
Values joined by “and” are separate entries in the source; they are usually repeats but may differ in a detail not shown here. Identical values can stand only once.

Key:
[1] = biological target: C-terminal multimerization domain of AbrB (AbrBC), residues 54-94 (B. subtilis); experiment: SEC
[2] = biological target: T1, N-terminal DNA-binding domain of AbrB (AbrBN), residues 1-53 (B. subtilis); experiment: SEC
T1 sequence (P08874 whole entry, looked up): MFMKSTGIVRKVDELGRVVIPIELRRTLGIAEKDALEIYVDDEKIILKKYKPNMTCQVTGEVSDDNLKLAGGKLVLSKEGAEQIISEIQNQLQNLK

[3] = biological target: T1, N-terminal DNA-binding domain of AbrB (AbrBN), residues 1-53 (B. subtilis); experiment: AUC
SEC = biological target: the molecule itself; experiment: SEC
[4] = biological target: T2, Full-length AbrB from B. subtilis (B. subtilis, UniProt P08874 1-96); experiment: ITC
T2 sequence (looked up): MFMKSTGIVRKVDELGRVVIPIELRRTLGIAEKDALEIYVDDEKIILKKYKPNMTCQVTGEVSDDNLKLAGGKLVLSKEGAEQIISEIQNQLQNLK

Molecule: C-terminal multimerization domain of AbrB (AbrBC), residues 54-94 (domain or fragment)
- stoichiometry N [1]: 2

Molecule: N-terminal DNA-binding domain of AbrB (AbrBN), residues 1-53 (domain or fragment)
- stoichiometry N [2]: 2
- stoichiometry N [3]: 2

B1: AbbA (anti-repressor protein AbbA from B. subtilis), histidine tag removed (natural protein, UniProt O31697 1-65, looked up)
chain: MRMSLIGERFTEEEQKLLLNILINHEYAIELLSSEINDIETGTKNVDGTTYKKLVTLYDRFRFEN
- stoichiometry N (SEC): 2
- Kd [4]: 16 nM and 11 to 21 nM
- stoichiometry N [4]: 0.868 to 0.969 (2×) and 0.918
- stoichiometry N (AbbA chains per AbrBN chain (2:2)) [3]: 1
